The numbers were not newly measured in paper PMC9960319, which cites them from elsewhere.

In general, Kd refers to the constant that tells how readily two partners part at equilibrium.

In the data set the target is intermediate-affinity IL-2 receptor (Homo sapiens) (UniProt P14784).
Sequence of UniProt P14784 (P14784 27-240, chain 1 of 2): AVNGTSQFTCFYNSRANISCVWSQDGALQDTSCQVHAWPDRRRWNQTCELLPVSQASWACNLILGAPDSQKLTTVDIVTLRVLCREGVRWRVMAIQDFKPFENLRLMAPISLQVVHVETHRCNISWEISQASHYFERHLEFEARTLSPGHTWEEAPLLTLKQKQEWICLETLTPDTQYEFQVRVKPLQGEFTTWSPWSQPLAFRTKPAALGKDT
Sequence of UniProt P14784 (P31785 23-262, chain 2 of 2, further chain): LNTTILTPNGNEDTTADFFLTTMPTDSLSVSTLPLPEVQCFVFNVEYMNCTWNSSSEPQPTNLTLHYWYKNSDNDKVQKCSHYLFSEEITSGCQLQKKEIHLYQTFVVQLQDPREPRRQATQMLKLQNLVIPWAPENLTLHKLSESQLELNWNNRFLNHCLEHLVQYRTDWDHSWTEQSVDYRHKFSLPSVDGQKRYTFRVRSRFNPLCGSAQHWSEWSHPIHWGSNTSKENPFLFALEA

On to IL-2 moiety (from UniProt P60568), for which the Kd is 40 nM.
